Several values for one entry are separate records, joined by “and”; a condition that tells them apart may be missing. Equal values may be shown once.
Experiments:
human PD-1 (human) [1] = molecular target: human PD-1 (human) (UniProt Q15116)
[2] = molecular target: ICOS as used in the OD read-out of Table E15A (Homo sapiens (Human)) (UniProt Q9Y6W8); assay: OD read-out, format not told
[3] = molecular target: CD28, full-length, expressed on transfected cells (Homo sapiens (Human)) (UniProt P10747); assay: flow cytometry, cells expressing target
human CTLA-4 (human) = assay: flow cytometry, CHO/CTLA-4 cells, 100 nM, anti-Flag
Chain of human CTLA-4 (human) (chain, as listed by the source): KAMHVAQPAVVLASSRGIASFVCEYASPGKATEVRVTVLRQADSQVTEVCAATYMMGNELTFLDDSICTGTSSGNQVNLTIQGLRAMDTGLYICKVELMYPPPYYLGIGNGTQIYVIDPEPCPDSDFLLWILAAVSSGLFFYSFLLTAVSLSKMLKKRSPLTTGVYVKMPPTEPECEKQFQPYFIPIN

human PD-1 (human) [4] = molecular target: human PD-1 (human) (UniProt Q15116); assay: flow cytometry, CHO/PD-1 cells, 100 nM, anti-Flag
CD28 (human) [5] = molecular target: CD28 (human) (UniProt P10747); assay: flow cytometry on HEK293 cells transfected with CD28; Fc control
PD-L1 (human) [6] = assay: flow cytometry on HEK293 cells transfected with PD-L1; Fc control
CTLA-4 (human) = assay: flow cytometry on HEK293 cells transfected with CTLA4; Fc control
PD-L1 (human) [7] = assay: flow cytometry on HEK293 cells transfected with PD-L1
Target sequence in this assay (chain, as listed by the source): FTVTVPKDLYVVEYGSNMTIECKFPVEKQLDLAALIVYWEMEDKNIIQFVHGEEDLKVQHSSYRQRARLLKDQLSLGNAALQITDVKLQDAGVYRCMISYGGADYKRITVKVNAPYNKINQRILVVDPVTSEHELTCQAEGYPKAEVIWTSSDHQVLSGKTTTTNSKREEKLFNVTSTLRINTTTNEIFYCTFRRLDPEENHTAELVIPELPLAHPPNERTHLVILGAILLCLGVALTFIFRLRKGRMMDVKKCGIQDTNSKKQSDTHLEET

CD2 (human) [8] = molecular target: CD2 (human) (UniProt P06729)
Target sequence in this assay (P06729 25-351): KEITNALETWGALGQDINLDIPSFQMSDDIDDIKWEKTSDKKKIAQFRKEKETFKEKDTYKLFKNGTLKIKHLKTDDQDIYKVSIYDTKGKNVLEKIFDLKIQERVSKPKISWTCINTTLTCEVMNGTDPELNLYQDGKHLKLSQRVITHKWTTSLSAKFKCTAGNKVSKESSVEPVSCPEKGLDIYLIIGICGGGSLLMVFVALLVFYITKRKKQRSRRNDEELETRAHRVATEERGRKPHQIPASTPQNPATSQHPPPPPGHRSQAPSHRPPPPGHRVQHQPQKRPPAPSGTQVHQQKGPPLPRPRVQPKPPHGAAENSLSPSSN

CD2 (human) [9] = molecular target: CD2 (human) (UniProt P06729); assay: flow cytometry, CHO-CD2 cells
Target sequence in this assay (P06729 25-351 limits assumed): as the sequence (P06729 25-351) above

CD226 (human) [10] = molecular target: T1, CD226 (human) (UniProt Q15762); assay: flow cytometry, Fc fusion on Expi293 cells transfected with full-length human CD226
T1 sequence: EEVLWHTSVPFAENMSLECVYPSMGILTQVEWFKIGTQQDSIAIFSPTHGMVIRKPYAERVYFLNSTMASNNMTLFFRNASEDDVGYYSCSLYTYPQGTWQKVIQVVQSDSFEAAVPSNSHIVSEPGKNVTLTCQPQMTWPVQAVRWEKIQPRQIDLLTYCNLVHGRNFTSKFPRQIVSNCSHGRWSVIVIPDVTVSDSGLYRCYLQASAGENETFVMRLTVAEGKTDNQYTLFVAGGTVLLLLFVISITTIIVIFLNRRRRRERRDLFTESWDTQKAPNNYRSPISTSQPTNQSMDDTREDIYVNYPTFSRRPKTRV

CD96 (human) [11] = molecular target: T2, CD96 (human) (UniProt P40200); assay: flow cytometry, CD96-transfected Expi293 cells
T2 sequence: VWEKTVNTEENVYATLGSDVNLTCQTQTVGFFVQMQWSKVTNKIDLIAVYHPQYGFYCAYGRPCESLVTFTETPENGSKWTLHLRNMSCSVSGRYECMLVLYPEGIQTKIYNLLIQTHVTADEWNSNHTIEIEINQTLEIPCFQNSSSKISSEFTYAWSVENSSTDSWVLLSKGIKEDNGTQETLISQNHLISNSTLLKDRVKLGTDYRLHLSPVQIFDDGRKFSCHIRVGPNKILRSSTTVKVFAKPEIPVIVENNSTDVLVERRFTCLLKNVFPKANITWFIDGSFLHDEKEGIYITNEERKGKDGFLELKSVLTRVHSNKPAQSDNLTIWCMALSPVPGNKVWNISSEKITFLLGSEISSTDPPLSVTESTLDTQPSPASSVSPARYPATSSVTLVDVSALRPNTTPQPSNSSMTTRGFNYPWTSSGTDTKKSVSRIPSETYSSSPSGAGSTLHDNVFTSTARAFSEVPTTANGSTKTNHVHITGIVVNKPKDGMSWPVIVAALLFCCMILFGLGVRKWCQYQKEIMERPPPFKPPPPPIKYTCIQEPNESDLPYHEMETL

CD226 (human) [12] = molecular target: T1, CD226 (human); assay: flow cytometry, CD226-transfected Expi293 cells
CD96 (human) [13] = molecular target: T2, CD96 (human); assay: flow cytometry, CD96-transfected Expi293 cells; ratio to wild-type CD155
TIGIT (human) [14] = molecular target: T3, TIGIT (human) (UniProt Q495A1); assay: flow cytometry, TIGIT-transfected Expi293 cells
T3 sequence: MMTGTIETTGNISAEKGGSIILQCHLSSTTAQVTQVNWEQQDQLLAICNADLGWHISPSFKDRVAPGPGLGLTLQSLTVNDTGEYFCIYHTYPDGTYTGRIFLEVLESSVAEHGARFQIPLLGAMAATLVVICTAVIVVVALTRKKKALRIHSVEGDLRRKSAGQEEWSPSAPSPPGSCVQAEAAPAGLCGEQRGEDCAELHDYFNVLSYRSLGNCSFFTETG

CD28 (human) [15] = molecular target: CD28 (human) (UniProt P10747); assay: flow cytometry, transfected cells
CD96 (human) [16] = molecular target: T2, CD96 (human); assay: flow cytometry on transfected HEK293 cells, 100 nM
TIGIT (human) [17] = molecular target: T3, TIGIT (human); assay: flow cytometry on transfected HEK293 cells, 100 nM
CD80 (human) = assay: flow cytometry, cells expressing CD80, 20 nM
Chain of CD80 (human) (chain, as listed by the source): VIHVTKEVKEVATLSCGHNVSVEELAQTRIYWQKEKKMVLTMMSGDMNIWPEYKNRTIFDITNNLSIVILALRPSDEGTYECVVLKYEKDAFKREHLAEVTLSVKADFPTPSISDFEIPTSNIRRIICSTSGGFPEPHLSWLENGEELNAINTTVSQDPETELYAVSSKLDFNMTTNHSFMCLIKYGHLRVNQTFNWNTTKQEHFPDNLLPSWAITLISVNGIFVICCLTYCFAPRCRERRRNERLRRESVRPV

human PD-1 (human) [18] = molecular target: human PD-1 (human) (UniProt Q15116); assay: flow cytometry, cells expressing PD-1, 20 nM
TIGIT (human) [19] = molecular target: T3, TIGIT (human); assay: flow cytometry, transfected HEK293
CD112R (human) = CD112R (human) (UniProt Q6DKI7); assay: flow cytometry, transfected HEK293
Chain of CD112R (human) (Q6DKI7 whole entry, the tested form may be a part): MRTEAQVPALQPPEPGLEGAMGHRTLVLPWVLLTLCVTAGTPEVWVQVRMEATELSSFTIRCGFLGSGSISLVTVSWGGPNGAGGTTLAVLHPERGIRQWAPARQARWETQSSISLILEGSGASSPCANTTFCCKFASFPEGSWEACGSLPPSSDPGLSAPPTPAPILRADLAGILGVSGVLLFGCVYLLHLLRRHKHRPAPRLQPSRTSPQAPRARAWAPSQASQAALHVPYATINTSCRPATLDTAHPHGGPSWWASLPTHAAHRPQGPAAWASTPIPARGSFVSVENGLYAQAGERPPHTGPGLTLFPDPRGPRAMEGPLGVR

TIGIT (human) [20] = molecular target: T3, TIGIT (human); assay: flow cytometry, Fc fusion on Expi293 cells transfected with full-length human TIGIT
CD28 (human) [21] = molecular target: CD28 (human) (UniProt P10747); assay: flow cytometry, Jurkat cells (endogenous CD28), 100 nM, anti-Flag
[22] = molecular target: CTLA-4, full-length, expressed on transfected cells (Homo sapiens (Human)) (UniProt P16410); assay: flow cytometry, cells expressing target
[23] = molecular target: ICOS, full-length, expressed on transfected cells (Homo sapiens (Human)) (UniProt Q9Y6W8); assay: flow cytometry, cells expressing target
Chain of ICOS, full-length, expressed on transfected cells (Homo sapiens (Human)) (Q9Y6W8 21-199 limits assumed): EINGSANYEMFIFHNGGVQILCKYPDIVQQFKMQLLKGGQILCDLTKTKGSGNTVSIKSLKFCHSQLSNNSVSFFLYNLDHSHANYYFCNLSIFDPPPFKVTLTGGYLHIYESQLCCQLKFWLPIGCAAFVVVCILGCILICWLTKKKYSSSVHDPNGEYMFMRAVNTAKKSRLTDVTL

Chain of human PD-1 (human) (Q15116 25-288): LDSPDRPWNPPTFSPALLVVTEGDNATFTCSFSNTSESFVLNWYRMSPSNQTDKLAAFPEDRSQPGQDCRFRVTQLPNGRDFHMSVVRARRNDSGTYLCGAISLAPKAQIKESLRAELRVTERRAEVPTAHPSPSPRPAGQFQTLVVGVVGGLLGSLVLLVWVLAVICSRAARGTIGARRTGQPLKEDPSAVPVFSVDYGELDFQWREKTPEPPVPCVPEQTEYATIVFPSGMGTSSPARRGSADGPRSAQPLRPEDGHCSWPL
Chain of Wild-type PD-L1 (IgV, SEQ ID NO 309) (ligand) (chain): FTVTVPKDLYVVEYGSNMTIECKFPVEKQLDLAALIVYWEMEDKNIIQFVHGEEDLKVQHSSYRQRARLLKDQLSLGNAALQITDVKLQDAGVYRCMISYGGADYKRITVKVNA
Chain of CD112 ECD-Fc (Fc fusion) (chain): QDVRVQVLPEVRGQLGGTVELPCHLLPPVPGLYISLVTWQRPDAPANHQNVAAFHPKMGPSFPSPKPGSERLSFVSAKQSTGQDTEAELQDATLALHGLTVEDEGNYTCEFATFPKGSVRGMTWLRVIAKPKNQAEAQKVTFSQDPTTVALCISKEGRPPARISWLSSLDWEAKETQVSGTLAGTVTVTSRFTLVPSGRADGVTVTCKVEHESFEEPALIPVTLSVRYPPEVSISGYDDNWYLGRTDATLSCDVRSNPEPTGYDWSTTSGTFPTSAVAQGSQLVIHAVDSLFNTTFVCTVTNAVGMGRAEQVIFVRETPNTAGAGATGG
Chain of Wildtype CD112-IgV Fc (Fc fusion) (chain): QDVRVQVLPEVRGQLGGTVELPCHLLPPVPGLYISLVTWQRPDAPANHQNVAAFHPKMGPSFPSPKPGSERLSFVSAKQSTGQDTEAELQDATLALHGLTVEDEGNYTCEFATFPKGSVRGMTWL
Chain of Wild Type PD-L2 IgV Fc fusion (chain): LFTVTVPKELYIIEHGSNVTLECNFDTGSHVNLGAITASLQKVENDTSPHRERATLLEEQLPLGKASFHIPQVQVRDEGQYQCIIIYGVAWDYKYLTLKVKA

Substance: Wild Type PD-L2 IgV Fc fusion
- IFN gamma levels pg/mL (MLR) (human PD-1 (human) [1]): 1380 pg/mL

Substance: ICOSL ECD-Fc N52H/N57Y/Q100P (Fc fusion)
- OD [2]: 1.57 OD
- MFI [3]: 447 MFI
- parental ratio [3]: 24.8 ratio to WT

Substance: PD-L2 1417 (monomeric variant PD-L2 IgV H15Q/T47A/K65R/S67L/Q82R/V89D) (ligand)
- MFI (human CTLA-4 (human)): 152
- MFI (human PD-1 (human) [4]): 26200

Substance: Fc only
- MFI at 66.6 nM (CD28 (human) [5]): 2590 MFI
- MFI at 22.2 nM (PD-L1 (human) [6]): 4740 MFI
- MFI at 66.6 nM (CTLA-4 (human)): 5960 MFI

Substance: Variant CD80 S44P/A71D Fc fusion
- MFI at 22.2 nM (PD-L1 (human) [7]): 6310 MFI

Substance: CD58 (WT) 3650-Fc (Fc fusion)
- 100 nM IFN-gamma (pg/mL), SEB assay (CD2 (human) [8]): 9660 pg/mL
- EC50 (CD2 (human) [9]): 0.2 nM

Substance: CD112 A112V (Fc fusion)
- MFI (CD226 (human) [10]): 152000 MFI

Substance: CD155 IgV-Fc P18L, L79V, F91S (Fc fusion)
- MFI (CD96 (human) [11]): 3280
- MFI (CD226 (human) [12]): 5140
- MFI parental ratio (CD96 (human) [13]): 1.1
- MFI (TIGIT (human) [14]): 4070

Substance: ICOSL ECD-Fc N30D/K42E/N52S/H115R/F172S/N194D (Fc fusion)
- MFI (CD28 (human) [15]): 4400 MFI

Substance: ICOSL ECD-Fc N52S/S130G/Y152C (Fc fusion)
- OD [2]: 0.16 OD
- parental ratio [2]: 0.19 ratio to WT
- MFI [3]: 24 MFI

Substance: CD112 ECD-Fc (Fc fusion)
- MFI at 100 nM (CD96 (human) [16]): 1100 MFI
- MFI at 100 nM (TIGIT (human) [17]): 29200 MFI

Substance: variant PD-L1 I36T/M97L/A103V/Q155H Fc fusion
- MFI at 20 nM (CD80 (human)): 128 MFI
- MFI at 20 nM (human PD-1 (human) [18]): 120 MFI

Substance: CD155 IgV-Fc P18T, F91S, R94H (Fc fusion)
- MFI (CD96 (human) [11]): 2510
- MFI (CD226 (human) [12]): 3590
- MFI parental ratio (CD96 (human) [13]): 0.8
- MFI (TIGIT (human) [14]): 2940

Substance: CD112 IgV-Fc A112V (Fc fusion)
- MFI at 20 nM (TIGIT (human) [19]): 69700
- MFI at 20 nM (CD112R (human)): 1140 and 1110

Substance: CD112 Y33H, A112V (Fc fusion)
- MFI (CD226 (human) [10]): 231000 MFI
- MFI (TIGIT (human) [20]): 99000 MFI

Substance: Wild-type PD-L1 (IgV, SEQ ID NO 309) (ligand)
- MFI (CD28 (human) [21]): 716
- MFI (human CTLA-4 (human)): 97.4

Substance: ICOSL ECD-Fc V11E/N30D/N52H/N57Y/H94E/L96I/L98F/N194D/V210A/I218T (Fc fusion)
- MFI [22]: 62800 MFI
- parental ratio [22]: 3.55 ratio to WT
- MFI [3]: 120000 MFI
- parental ratio [3]: 26.8 ratio to WT
- MFI [23]: 180000 MFI

Substance: Wildtype CD112-IgV Fc (Fc fusion)
- MFI at 100 nM (TIGIT (human) [17]): 82400 MFI

Source: patent US20250163127A1
